# Results as given in PMC4656083 (Chemistry & biology, 2015).
# T1: FabA, β-hydroxyacyl-AcpP dehydratase (wild type) (E. coli, UniProt P0A6Q3 2-172)
# T1 sequence: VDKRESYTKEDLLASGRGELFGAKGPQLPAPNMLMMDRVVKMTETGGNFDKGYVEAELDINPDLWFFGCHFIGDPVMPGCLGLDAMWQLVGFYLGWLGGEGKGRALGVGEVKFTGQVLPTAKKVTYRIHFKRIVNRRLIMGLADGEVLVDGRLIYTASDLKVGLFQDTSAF
# Legend:
# Assay in all cases: cross-linking
# [1] = biological target: AcpP (acyl carrier protein) loaded with crosslinking probe DH10 (E. coli) (UniProt P0A6A8)
# [2] = biological target: AcpP (acyl carrier protein) loaded with crosslinking probe DH10X (E. coli) (UniProt P0A6A8)
# [3] = biological target: AcpP (acyl carrier protein) loaded with crosslinking probe DH6 (E. coli) (UniProt P0A6A8)
# [4] = biological target: AcpP (acyl carrier protein) loaded with crosslinking probe DH8 (E. coli) (UniProt P0A6A8)
# [5] = biological target: T1, FabA, β-hydroxyacyl-AcpP dehydratase …
Molecule,crosslinking efficiency relative to WT FabA [1],crosslinking efficiency relative to WT FabA [2],crosslinking efficiency relative to WT FabA [3],crosslinking efficiency relative to WT FabA [4],also measured
FabA L164A (enzyme),> 50%,> 50%,> 50%,> 50%,
FabA L94A (enzyme),> 50%,> 50%,> 50%,> 50%,
FabA F171A (enzyme),,,,,crosslinking efficiency relative to FabA WT [1]: 50%; crosslinking efficiency relative to FabA WT [2]: 50%
FabA F165A (enzyme),,,,,crosslinking efficiency relative to FabA WT [1]: 50%; crosslinking efficiency relative to FabA WT [2]: 50%
FabA F92A (enzyme),> 50%,> 50%,> 50%,> 50%,
FabA R137E (enzyme),,,,,percent complex formation (crosslinking) [1]: < 50%; percent complex formation (crosslinking) [2]: < 50%; percent complex formation (crosslinking) [3]: < 50%; percent complex formation (crosslinking) [4]: < 50%
"AcpP (acyl carrier protein) loaded with crosslinking probe DH10 (natural protein, E. coli, S36 carries the phosphopantetheine analogue of probe DH10 (sulfonyl-3-alkyne warhead, mimics a C10 acyl chain)) STIEERVKKIIGEQLGVKQEEVTNNASFVEDLGADSLDTVELVMALEEEFDTEIPDEEAEKITTVQAAIDYINGHQA",,,,,binding result [5]: binds
